The values below come from publication PMC2676118.

Assay in all cases: AUC
The target of assay [1] is FGF9^WT, purified recombinant wild type FGF9 (UniProt P54130).
Assay [2] has the same target. The source holds these as a separate data set.
Assay [3] has as its target FGF9^Eks, purified recombinant FGF9 with the Eks mutation N143T (UniProt P54130).

Where two headings read alike, the source gives them in different places.

Take “FGF9^WT, purified recombinant wild type FGF9 (from UniProt P54130 4-208) (natural protein)”: the stoichiometry N in assay [1] and in assay [2] was 2 each time. For the same substance, the Ka in assay [2] stood at 1.04e+07 M⁻¹.
Take “FGF9^Eks, purified recombinant FGF9 with the Eks mutation N143T (from UniProt P54130 4-208) (natural protein)”: in assay [3], the Ka stood at 119000 M⁻¹ and the stoichiometry N amounted to 2.
